Assay results: PMC3082517 (PLoS Biology, 2011)

What was measured:
TrkA receptor = target: TrkA receptor; set-up: method as in PMID 16939974; conditions: read-out: KD of NGF binding to TrkA receptor; cited from earlier work
TrkA [1] = target: T1, TrkA (Rattus norvegicus, UniProt P35739); assay: Tyr490 TrkA phosphorylation in naive PC12 cells (Western blot); type: cell-based; set-up: PC12 cells, endogenously expressing TrkA receptors; endogenous in cells; host or cells: PC12; conditions: 10 min, DHEA 100 nM, NGF 100 ng/ml
Method: (§1) PC12 or HEK293 cells lysates were electrophoresed through a 12% SDS-polyacrylamide gel, and then proteins were transferred to nitrocellulose membranes, which were processed according to standard Western blotting procedures, as previously described. To detect protein levels, membranes were incubated with the appropriate antibodies: Bcl-2 (dilution 1∶500), phospho TrkA (dilution 1∶500), total TrkA (dilution1∶500), p75^NTR (dilution 1∶500), phospho Shc (dilution 1∶1000), total Shc (dilution 1∶1000), phospho Akt (dilution 1∶500), total Akt (dilution 1∶500), phospho ERK1/2 (dilution 1∶500), and total ERK1/2 (dilution 1∶500). Proteins were visualized using the ECL Western blotting kit (ECL Amersham Biosciences, UK), and blots were exposed to Kodak X-Omat AR films. A PC-based Image Analysis program was used to quantify the intensity of each band (Image Analysis, Inc., Ontario, Canada).
(§2) To normalize for protein content the blots were stripped and stained with GAPDH antibody (dilution 1∶1000); the concentration of each target protein was normalized versus GAPDH. Where phosphorylation of TrkA or kinases was measured, membranes were first probed for the phosphorylated form of the protein, then stripped, and probed for the total protein.

TrkA [2] = target: T1, TrkA; assay: TrkA phosphorylation in HEK293^TrkA transfectants (anti-tyrosine IP, Western blot); type: cell-based; set-up: expressed in transfected cells; host or cells: HEK293; conditions: 10 min (and 20 min), steroids 100 nM, NGF 100 ng/ml
Method: (§3) HEK293 cells were transfected with the appropriate plasmids (TrkA, p75^NTR, RIP2, TRAF-6, and RhoGDI) by using Lipofectamine 2000 (Invitrogen). Cells were harvested 48 h after transfection and suspended in lysis buffer (50 mM Tris-HCl, 0.15 M NaCl, 1% Triton-X100, pH 7.4) supplemented with protease inhibitors. Lysates were precleared for 1 h with Protein A-Sepharose beads (Amersham) and immunoprecipitated with the appropriate antibody (pTyr, Flag, or c-myc) overnight at 4°C. Protein A Sepharose beads were incubated with the lysates for 4 h at 4°C with gentle shaking. […] Beads were collected by centrifugation, washed four times with lysis buffer, and resuspended in SDS loading buffer. Proteins were separated by SDS/PAGE, followed by immunoblotting with specific antibodies.
as §1, §2

[3] = target: T2, p75^NTR with effectors TRAF6, RIP2, RhoGDI (Rattus norvegicus, UniProt P07174); assay: Co-immunoprecipitation of p75NTR with effectors TRAF6, RIP2, RhoGDI in co-transfected HEK293 cells; type: cell-based; conditions: co-transfected HEK293, 30 min; 100 nM DHEA, 100 ng/ml NGF
T2 construct: expressed in transfected cells; host or cells: HEK293
T2 sequence (P07174 30-425): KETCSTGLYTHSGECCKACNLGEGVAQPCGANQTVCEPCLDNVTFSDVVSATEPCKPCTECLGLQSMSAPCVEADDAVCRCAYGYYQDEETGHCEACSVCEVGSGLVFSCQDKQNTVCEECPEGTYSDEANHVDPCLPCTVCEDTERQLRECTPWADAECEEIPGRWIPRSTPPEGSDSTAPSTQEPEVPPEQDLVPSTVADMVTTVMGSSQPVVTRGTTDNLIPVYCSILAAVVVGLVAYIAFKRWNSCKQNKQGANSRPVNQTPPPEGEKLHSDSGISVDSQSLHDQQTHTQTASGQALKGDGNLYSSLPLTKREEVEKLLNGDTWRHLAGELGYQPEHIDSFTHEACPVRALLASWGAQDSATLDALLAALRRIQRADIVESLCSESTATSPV
Method: as §3

p75^NTR receptor = target: p75^NTR receptor; set-up: method as in PMID 16939974; conditions: read-out: KD of NGF binding to p75NTR receptor; cited from earlier work
PC12 cell membranes = assay: [3H]-DHEA displacement, PC12 cell membranes; type: binding; conditions: unpublished data
Method: HEK293 cells transfected with an empty vector (HEK293-Vector) or overexpressing p75^NTR (HEK293-p75) or TrkA (HEK293-TrkA), and PC12 cells wild type or shRNA knocked down for p75^NTR and TrkA, were cultured, collected by scraping on ice and washed twice with cold Phosphate Buffer Saline (PBS), pH 7.4. After centrifugation at 1,200 rpm, cells were homogenized in a 50 mM Tris-HCl buffer, pH 7.4 (at 4°C), containing freshly added protease inhibitors (1 mM PMSF and 1 µg/ml aprotinin). Crude membrane fractions were isolated by differential centrifugation at 2,500×g (10 min at 4°C, to remove unbroken cells and nuclei) and 102,000×g (1 h, at 4°C). Membranes were washed once with ice-cold 50 mM Tris–HCl buffer, pH 7.4, and re-suspended in the same buffer. […]
Membranes were incubated for 30 min at 25°C or overnight at 4°C, on a rotating plate; then they were collected on GF/B filters, prewetted in 0.5% PEI solution at 4°C. Filters were washed three times with ice-cold PBS, dried, and counted in scintillation fluid (SigmaFluor, Sigma) in a scintillation counter (Perkin Elmer, Foster City, CA) with 60% efficiency for Tritium. For saturation curves, specific binding (Bound, B) was calculated as the difference of Total Binding − Non Specific Binding. KDs were calculated from B/F over B Scatchard plots. […]

p75^NTR = assay: p75NTR protein levels in serum deprived PC12 cells (immunoblotting); type: cell-based; conditions: serum deprived PC12, between 24 and 48 h; 100 nM DHEA, 100 ng/ml NGF; n = 5, p<0.01
Method: as §1, §2

TrkA [4] = assay: TrkA protein levels in serum deprived PC12 cells (immunoblotting); type: cell-based; conditions: serum deprived PC12, 12 to 48 h; 100 nM DHEA, 100 ng/ml NGF; n = 5, p<0.01
Method: as §1, §2

[5] = tested on: Shc, ERK1/2, and Akt kinases; assay: Phosphorylation of Shc, ERK1/2 and Akt kinases in PC12 cells (Western blot); type: cell-based; conditions: serum deprived naive PC12 cells, 10 min; 100 nM DHEA, 100 ng/ml NGF
Method: as §1, §2

nnr5 cells = assay: Apoptosis of nnr5 cells (PC12 clone expressing only p75NTR); type: cell-based; conditions: DHEA 100 nM, NGF 100 ng/ml
Method: PC12 cells were obtained from LGC Promochem (LGC Standards GmbH, Germany) and nnr5 cells from Dr. C.F. Ibáñez (Karolinska Institute). Both cell types were grown in RPMI 1640 containing 2 mM L-glutamine, 15 mM HEPES, 100 units/ml penicillin, 0.1 mg/ml streptomycin, and 10% horse serum, 5% fetal calf serum (both charcoal-stripped for removing endogenous steroids) at 5% CO2 and 37°C. HEK-293 cells were obtained from LGC Promochem. Cells were grown in DMEM medium containing 10% fetal bovine serum (charcoal-stripped for removing endogenous steroids), 100 units/ml penicillin, and 0.1 mg/ml streptomycin, at 5% CO2 and […]. HEK-293 and PC12 cells were transfected with Lipofectamine 2000 (InVitrogen) according to manufacturer's instructions. Transfected cells were typically used on the 2nd day after transfection.
PC12 cells were cultured in 12-well plates, and 24 h later they were transfected with the si/shRNAs for TrkA and/or p75^NTR. […] Apoptosis was quantified 24 h later with annexin V-FITC and PI (BD Pharmingen) according to our protocol.

T1 sequence (P35739 33-799): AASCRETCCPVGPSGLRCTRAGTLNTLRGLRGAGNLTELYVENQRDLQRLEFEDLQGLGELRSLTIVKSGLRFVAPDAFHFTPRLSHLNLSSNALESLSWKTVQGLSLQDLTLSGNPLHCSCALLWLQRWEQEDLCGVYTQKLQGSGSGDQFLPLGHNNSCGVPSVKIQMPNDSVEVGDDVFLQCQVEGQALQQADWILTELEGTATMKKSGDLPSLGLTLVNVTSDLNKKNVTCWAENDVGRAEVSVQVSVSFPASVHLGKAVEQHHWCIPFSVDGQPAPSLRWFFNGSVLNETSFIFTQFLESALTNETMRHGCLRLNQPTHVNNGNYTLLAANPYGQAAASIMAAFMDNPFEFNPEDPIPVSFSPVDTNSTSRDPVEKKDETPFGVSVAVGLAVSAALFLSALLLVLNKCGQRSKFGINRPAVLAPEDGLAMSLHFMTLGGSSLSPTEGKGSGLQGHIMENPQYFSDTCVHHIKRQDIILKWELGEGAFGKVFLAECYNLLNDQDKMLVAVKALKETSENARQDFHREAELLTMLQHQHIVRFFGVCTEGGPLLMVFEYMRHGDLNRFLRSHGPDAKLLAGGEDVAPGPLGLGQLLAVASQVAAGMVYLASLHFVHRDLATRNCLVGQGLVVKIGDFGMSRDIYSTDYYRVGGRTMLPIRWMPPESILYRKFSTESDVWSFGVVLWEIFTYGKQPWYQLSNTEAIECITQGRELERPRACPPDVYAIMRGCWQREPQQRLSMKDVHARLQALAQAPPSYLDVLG

B1: NGF: neurotrophin nerve growth factor (protein)
chain: SSTHPVFHMGEFSVCDSVSVWVGDKTTATDIKGKEVTVLAEVNINNSVFRQYFFETKCRASNPVESGCRGIDSKHWNSYCTTTHTFVKALTTDEKQAAWRFIRIDTACVCVLSRKATRRG
Q: Which Kd (TrkA receptor) does the source give for B1 here?
A: 0.01 nM

Q: And the “phosphorylation of TrkA (Tyr490)” value (TrkA [1])?
A: strongly induced

Q: And the “phosphorylation of TrkA” value (TrkA [2])?
A: strongly increased

Q: What about the “association of p75NTR with effectors TRAF6 and RIP2” value [3] of the same molecule?
A: efficiently induced the association

Q: What about the “dissociation of RhoGDI from p75NTR receptors” value [3] of the same molecule?
A: facilitating the dissociation

Q: What about the Kd (p75^NTR receptor) of the same molecule?
A: 1 nM

Q: And the IC50 (PC12 cell membranes)?
A: 0.92 ± 0.32 nM

Q: What about the p75NTR receptor levels (p75^NTR) of the same molecule?
A: significantly decreased

Q: And the TrkA receptor levels (TrkA [4])?
A: significantly increased

Q: And the “phosphorylation of Shc, ERK1/2, and Akt kinases” value [5]?
A: strongly increased

Q: And the “effect on apoptosis of nnr5 cells” value (nnr5 cells)?
A: induced apoptosis
